In US20150297748A1 (Daiichi Sankyo, published 2015):

T1: human B7-H3 variant 1 (human, UniProt Q5ZPR3 27-534)
T1 sequence: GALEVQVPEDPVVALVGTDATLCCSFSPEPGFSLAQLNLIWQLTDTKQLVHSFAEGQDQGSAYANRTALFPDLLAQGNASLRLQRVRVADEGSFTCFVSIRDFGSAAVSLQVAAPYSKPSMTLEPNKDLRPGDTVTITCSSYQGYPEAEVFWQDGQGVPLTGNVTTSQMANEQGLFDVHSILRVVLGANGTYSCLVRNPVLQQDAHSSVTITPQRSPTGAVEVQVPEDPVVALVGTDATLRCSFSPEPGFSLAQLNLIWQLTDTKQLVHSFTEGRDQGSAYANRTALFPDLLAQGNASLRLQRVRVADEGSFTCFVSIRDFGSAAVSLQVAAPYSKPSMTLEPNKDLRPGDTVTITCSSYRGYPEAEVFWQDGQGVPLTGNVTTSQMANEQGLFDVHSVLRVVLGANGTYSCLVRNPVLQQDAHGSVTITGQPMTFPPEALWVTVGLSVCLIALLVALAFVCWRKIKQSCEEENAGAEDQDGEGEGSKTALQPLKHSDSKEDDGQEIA


target: T1, human B7-H3 variant 1; test: cell-based or functional assay

| Binder | IC50, cytotoxic activity against the CEM_V1-3.1-2 cells [nM] |
| --- | --- |
| Antibody-drug conjugate (5) (antibody, human IgG1, kappa, V domains shown, drug-linker 6-maleimidohexanoyl-GGFG-NH-(CH2)3-C(=O)-exatecan (compound of Process 3 of Example 2) on cysteines of the reduced hinge disulfide bonds; average 6.7 per antibody molecule; positions not given) VH: QVQLVQSGAEVKKPGSSVKVSCKASGYTFTNYVMHWVRQAPGQGLEWMGYINPYNDDVKYNEKFKGRVTITADESTSTAYMELSSLRSEDTAVYYCARWGYYGSPLYYFDYWGQGTLVTVSS VL: EIVLTQSPATLSLSPGERATLSCRASSRLIYMHWYQQKPGQAPRPLIYATSNLASGIPARFSGSGSGTDFTLTISSLEPEDFAVYYCQQWNSNPPTFGQGTKVEIKR | < 0.1 |
| Antibody-drug conjugate (52) (antibody, human IgG1, kappa, V domains shown, drug-linker 6-maleimidohexanoyl-GGFG-NH-(CH2)5-C(=O)-exatecan (compound of Process 5 of Example 54) on cysteines of the reduced hinge disulfide bonds; average 3.1 per antibody molecule; positions not given) VH: QVQLVQSGAEVKKPGSSVKVSCKASGYTFTNYVMHWVRQAPGQGLEWMGYINPYNDDVKYNEKFKGRVTITADESTSTAYMELSSLRSEDTAVYYCARWGYYGSPLYYFDYWGQGTLVTVSS VL: EIVLTQSPATLSLSPGERATLSCRASSRLIYMHWYQQKPGQAPRPLIYATSNLASGIPARFSGSGSGTDFTLTISSLEPEDFAVYYCQQWNSNPPTFGQGTKVEIKR | < 0.1 |
| Antibody-drug conjugate (32) (antibody, human IgG1, kappa, V domains shown, drug-linker from N-(bromoacetyl)-beta-alanyl-GGFG-NH-(CH2)3-C(=O)-exatecan (compound of Process 3 of Example 30) on cysteines of the reduced hinge disulfide bonds; average 6.0 per antibody molecule; positions not given) VH: QVQLVQSGAEVKKPGSSVKVSCKASGYTFTNYVMHWVRQAPGQGLEWMGYINPYNDDVKYNEKFKGRVTITADESTSTAYMELSSLRSEDTAVYYCARWGYYGSPLYYFDYWGQGTLVTVSS VL: EIVLTQSPATLSLSPGERATLSCRASSRLIYMHWYQQKPGQAPRPLIYATSNLASGIPARFSGSGSGTDFTLTISSLEPEDFAVYYCQQWNSNPPTFGQGTKVEIKR | < 0.1 |
| Antibody-drug conjugate (16) (antibody, human IgG1, kappa, V domains shown, drug-linker 3-maleimidopropanoyl-NH-(CH2CH2O)2-CH2CH2-C(=O)-GGFG-NH-(CH2)3-C(=O)-exatecan (compound of Process 1 of Example 14) on cysteines of the reduced hinge disulfide bonds; average 6.5 per antibody molecule; positions not given) VH: QVQLVQSGAEVKKPGSSVKVSCKASGYTFTNYVMHWVRQAPGQGLEWMGYINPYNDDVKYNEKFKGRVTITADESTSTAYMELSSLRSEDTAVYYCARWGYYGSPLYYFDYWGQGTLVTVSS VL: EIVLTQSPATLSLSPGERATLSCRASSRLIYMHWYQQKPGQAPRPLIYATSNLASGIPARFSGSGSGTDFTLTISSLEPEDFAVYYCQQWNSNPPTFGQGTKVEIKR | < 0.1 |
| Antibody-drug conjugate (44) (antibody, human IgG1, kappa, V domains shown, drug-linker 6-maleimidohexanoyl-GGFG-NH-CH2CH2-O-CH2-C(=O)-exatecan (compound of Process 3 of Example 43) on cysteines of the reduced hinge disulfide bonds; average 6.6 per antibody molecule; positions not given) VH: QVQLVQSGAEVKKPGSSVKVSCKASGYTFTNYVMHWVRQAPGQGLEWMGYINPYNDDVKYNEKFKGRVTITADESTSTAYMELSSLRSEDTAVYYCARWGYYGSPLYYFDYWGQGTLVTVSS VL: EIVLTQSPATLSLSPGERATLSCRASSRLIYMHWYQQKPGQAPRPLIYATSNLASGIPARFSGSGSGTDFTLTISSLEPEDFAVYYCQQWNSNPPTFGQGTKVEIKR | < 0.1 |
| Antibody-drug conjugate (21) (antibody, human IgG1, kappa, V domains shown, drug-linker 3-maleimidopropanoyl-NH-(CH2CH2O)2-CH2CH2-C(=O)-GGFG-NH-(CH2)3-C(=O)-exatecan (compound of Process 1 of Example 14) on cysteines of the reduced hinge disulfide bonds; average 5.5 per antibody molecule; positions not given) VH: QVQLVQSGAEVKKPGSSVKVSCKASGYTFTNYVMHWVRQAPGQGLEWMGYINPYNDDVKYNEKFKGRVTITADESTSTAYMELSSLRSEDTAVYYCARWGYYGSPLYYFDYWGQGTLVTVSS VL: EIVLTQSPATLSLSPGERATLSCRASSRLIYMHWYQQKPGQAPRPLIYATSNLASGIPARFSGSGSGTDFTLTISSLEPEDFAVYYCQQWNSNPPTFGQGTKVEIKR | < 0.1 |
| Antibody-drug conjugate (46) (antibody, human IgG1, kappa, V domains shown, drug-linker 6-maleimidohexanoyl-GGFG-NH-CH2CH2-O-CH2-C(=O)-exatecan (compound of Process 3 of Example 43) on cysteines of the reduced hinge disulfide bonds; average 5.2 per antibody molecule; positions not given) VH: QVQLVQSGAEVKKPGSSVKVSCKASGYTFTNYVMHWVRQAPGQGLEWMGYINPYNDDVKYNEKFKGRVTITADESTSTAYMELSSLRSEDTAVYYCARWGYYGSPLYYFDYWGQGTLVTVSS VL: EIVLTQSPATLSLSPGERATLSCRASSRLIYMHWYQQKPGQAPRPLIYATSNLASGIPARFSGSGSGTDFTLTISSLEPEDFAVYYCQQWNSNPPTFGQGTKVEIKR | < 0.1 |
| Antibody-drug conjugate (54) (antibody, human IgG1, kappa, V domains shown, drug-linker 6-maleimidohexanoyl-GGFG-NH-(CH2)5-C(=O)-exatecan (compound of Process 5 of Example 54) on cysteines of the reduced hinge disulfide bonds; average 3.0 per antibody molecule; positions not given) VH: QVQLVQSGAEVKKPGSSVKVSCKASGYTFTNYVMHWVRQAPGQGLEWMGYINPYNDDVKYNEKFKGRVTITADESTSTAYMELSSLRSEDTAVYYCARWGYYGSPLYYFDYWGQGTLVTVSS VL: EIVLTQSPATLSLSPGERATLSCRASSRLIYMHWYQQKPGQAPRPLIYATSNLASGIPARFSGSGSGTDFTLTISSLEPEDFAVYYCQQWNSNPPTFGQGTKVEIKR | < 0.1 |
| Antibody-drug conjugate (45) (antibody, human IgG1, kappa, V domains shown, drug-linker 6-maleimidohexanoyl-GGFG-NH-CH2CH2-O-CH2-C(=O)-exatecan (compound of Process 3 of Example 43) on cysteines of the reduced hinge disulfide bonds; average 3.7 per antibody molecule; positions not given) VH: QVQLVQSGAEVKKPGSSVKVSCKASGYTFTNYVMHWVRQAPGQGLEWMGYINPYNDDVKYNEKFKGRVTITADESTSTAYMELSSLRSEDTAVYYCARWGYYGSPLYYFDYWGQGTLVTVSS VL: EIVLTQSPATLSLSPGERATLSCRASSRLIYMHWYQQKPGQAPRPLIYATSNLASGIPARFSGSGSGTDFTLTISSLEPEDFAVYYCQQWNSNPPTFGQGTKVEIKR | < 0.1 |
